The series deals with the molecule itself. Briefly: crystal structure.

B1: hASRGL1-Thr168Ala (human asparaginase-like protein 1, processing-inactive, precursor-like variant) (enzyme, UniProt Q7L266 1-308, looked up)
chain: MNPIVVVHGGGAGPISKDRKERVHQGMVRAATVGYGILREGGSAVDAVEGAVVALEDDPEFNAGCGSVLNTNGEVEMDASIMDGKDLSAGAVSAVQCIANPIKLARLVMEKTPHCFLTDQGAAQFAAAMGVPEIPGEKLVTERNKKRLEKEKHEKGAQKTDCQKNLGAVGAVALDCKGNVAYATSTGGIVNKMVGRVGDSPCLGAGGYADNDIGAVSTTGHGESILKVNLARLTLFHIEQGKTVEEAADLSLGYMKSRVKGLGGLIVVSKTGDWVAKWTSTSMPWAAAKDGKLHFGIDPDDTTITDLP
Take B1: the binding result was “binds”.

The values are drawn from paper PMC3514461 (ACS chemical biology, 2012).
